Article doi:10.1101/2020.11.11.377994v1

Key:
[1] = substrate: Nc1ncnc2c1ncn2[C@@H]1O[C@H](COP(=O)(O)OP(=O)(O)OP(=O)(O)O)[C@@H](O)[C@H]1O; assay: purified protein; conditions: 200 uM dCoA, 10 mM MgCl2, pH 7.4, 37 °C, phosphotransferase
[2] = substrate: CC(C)(COP(=O)(O)OP(=O)(O)OC[C@H]1O[C@@H](n2cnc3c(N)ncnc32)[C@H](O)[C@@H]1O)[C@@H](O)C(=O)NCCC(=O)NCCS; assay: purified protein; conditions: 200 uM ATP, 10 mM MgCl2, pH 7.4, 37 °C

B1: DPCK (DPCK-WT), putative dephospho-CoA kinase (Aquifex aeolicus VF5) (protein)
chain: MKRIGLTGNIGCGKSTVAQMFRELGAYVLDADKLIHSFYRKGHPVYEEVVKTFGKGILDEEGNIDRKKLADIVFKDEEKLRKLEEITHRALYKEIEKITKNLSEDTLFILEASLLVEKGTYKNYDKLIVVYAPYEVCKERAIKRGMSEEDFERRWKKQMPIEEKVKYADYVIDNSGSIEETYKQVKKVYEELTRDP
[1]
  Km: 12.7 ± 0.3 µM
  kcat: 0.73 ± 0.025 s⁻¹
[2]
  Km: 24.3 ± 1.7 µM
  kcat: 0.817 ± 0.0867 s⁻¹
